Holding throughout (assay): flow cytometry, transfected 293T cells
The target of test [1] is CHIKV E2-6K-E1 envelope proteins (strain S27) with E2 C201A (Chikungunya virus strain S27) (UniProt Q8JUX5).
Test [2] has as its target CHIKV E2-6K-E1 envelope proteins (strain S27) with E2 I211A (Chikungunya virus strain S27) (UniProt Q8JUX5).
Test [3] has as its target CHIKV E2-6K-E1 envelope proteins (strain S27) with E2 N193A (Chikungunya virus strain S27) (UniProt Q8JUX5).
In test [4] the target is CHIKV E2-6K-E1 envelope proteins (strain S27) with E2 N218A (Chikungunya virus strain S27) (UniProt Q8JUX5).
For test [5], the target named is CHIKV E2-6K-E1 envelope proteins (strain S27) with E2 S182A (Chikungunya virus strain S27) (UniProt Q8JUX5).
Test [6] concerns the target CHIKV E2-6K-E1 envelope proteins (strain S27) with E2 V188A (Chikungunya virus strain S27) (UniProt Q8JUX5).

Turning to “Mxra8-Fc (mouse Mxra8 extracellular domain fused to mouse IgG2b Fc) (Fc fusion)”, the Binding Reactivity (% WT) in test [1] is 9.6 % WT; in test [2] it was 81.1 % WT; in test [3], 120 % WT; in test [4] it was 56.5 % WT; in test [5], 70.9 % WT; in test [6] it was 55.2 % WT.
